What was measured:
[1] = biological target: HSV-1 glycoprotein D-Fc fusion protein (HSV-1) (UniProt Q69091); assay: phage ELISA, glycoprotein D coated, anti-M13 HRP; well H5
[2] = biological target: HSV-1 glycoprotein D-Fc fusion protein (HSV-1) (UniProt Q69091); assay: phage ELISA, glycoprotein D coated, anti-M13 HRP; well D3
[3] = biological target: HSV-1 glycoprotein D-Fc fusion protein (HSV-1) (UniProt Q69091); assay: phage ELISA, glycoprotein D coated, anti-M13 HRP; well D5
[4] = biological target: HSV-1 glycoprotein D-Fc fusion protein (HSV-1) (UniProt Q69091); assay: phage ELISA, glycoprotein D coated, anti-M13 HRP; well H1
[5] = biological target: HSV-1 glycoprotein D-Fc fusion protein (HSV-1) (UniProt Q69091); assay: phage ELISA, glycoprotein D coated, anti-M13 HRP; well F3
[6] = biological target: HSV-1 glycoprotein D-Fc fusion protein (HSV-1) (UniProt Q69091); assay: phage ELISA, glycoprotein D coated, anti-M13 HRP; well C8
[7] = biological target: HSV-1 glycoprotein D-Fc fusion protein (HSV-1) (UniProt Q69091); assay: SPR single-cycle kinetics, G-Fc captured on anti-human IgG, 25 C, 1:1 Binding fit; item G19, curve Fc=2-1; Table 6 calls the fit to the 1:1 model poor
[8] = biological target: HSV-1 glycoprotein D-Fc fusion protein (HSV-1) (UniProt Q69091); assay: SPR single-cycle kinetics, G-Fc captured on anti-human IgG, 25 C, 1:1 Binding fit; item G19 2, curve Fc=3-1; Table 6 calls the fit to the 1:1 model poor
[9] = biological target: HSV-1 glycoprotein D-Fc fusion protein (HSV-1) (UniProt Q69091); assay: phage ELISA, glycoprotein D coated, anti-M13 HRP; well C3
[10] = biological target: HSV-1 glycoprotein D-Fc fusion protein (HSV-1) (UniProt Q69091); assay: SPR, G-Fc captured on anti-human IgG; low end tied to G44 by Table 6
[11] = biological target: HSV-1 glycoprotein D-Fc fusion protein (HSV-1) (UniProt Q69091); assay: SPR Biacore T200, single cycle kinetics, G-Fc captured on anti-human IgG, 1:1 fit
[12] = biological target: HSV-1 glycoprotein D-Fc fusion protein (HSV-1) (UniProt Q69091); assay: SPR Biacore T200, single cycle kinetics, G-Fc captured on anti-human IgG, 1:1 fit, second run
[13] = biological target: HSV-1 glycoprotein D-Fc fusion protein (HSV-1) (UniProt Q69091); assay: phage ELISA, glycoprotein D coated, anti-M13 HRP; well D6
[14] = biological target: HSV-1 glycoprotein D-Fc fusion protein (HSV-1) (UniProt Q69091); assay: phage ELISA, glycoprotein D coated, anti-M13 HRP; well C5
[15] = biological target: HSV-1 glycoprotein D-Fc fusion protein (HSV-1) (UniProt Q69091); assay: phage ELISA, glycoprotein D coated, anti-M13 HRP; well B4
[16] = biological target: HSV-1 glycoprotein D-Fc fusion protein (HSV-1) (UniProt Q69091); assay: phage ELISA, glycoprotein D coated, anti-M13 HRP; well H3
[17] = biological target: HSV-1 glycoprotein D-Fc fusion protein (HSV-1) (UniProt Q69091); assay: phage ELISA, glycoprotein D coated, anti-M13 HRP; well E10
[18] = biological target: HSV-1 glycoprotein D-Fc fusion protein (HSV-1) (UniProt Q69091); assay: SPR, G-Fc captured on anti-human IgG; high end tied to G77 by Table 6
[19] = biological target: HSV-1 glycoprotein D-Fc fusion protein (HSV-1) (UniProt Q69091); assay: phage ELISA, glycoprotein D coated, anti-M13 HRP; well C6
[20] = biological target: HSV-1 glycoprotein D-Fc fusion protein (HSV-1) (UniProt Q69091); assay: phage ELISA, glycoprotein D coated, anti-M13 HRP; well B2
[21] = biological target: HSV-1 glycoprotein D-Fc fusion protein (HSV-1) (UniProt Q69091); assay: phage ELISA, glycoprotein D coated, anti-M13 HRP; well D2
[22] = biological target: HSV-1 glycoprotein D-Fc fusion protein (HSV-1) (UniProt Q69091); assay: phage ELISA, glycoprotein D coated, anti-M13 HRP; well A6
[23] = biological target: HSV-1 glycoprotein D-Fc fusion protein (HSV-1) (UniProt Q69091); assay: phage ELISA, glycoprotein D coated, anti-M13 HRP; well D1
[24] = biological target: HSV-1 glycoprotein D-Fc fusion protein (HSV-1) (UniProt Q69091); assay: phage ELISA, glycoprotein D coated, anti-M13 HRP; well H8
[25] = biological target: HSV-1 glycoprotein D-Fc fusion protein (HSV-1) (UniProt Q69091); assay: phage ELISA, glycoprotein D coated, anti-M13 HRP; well G11
[26] = biological target: HSV-1 glycoprotein D-Fc fusion protein (HSV-1) (UniProt Q69091); assay: phage ELISA, glycoprotein D coated, anti-M13 HRP; well F1

B1: 3G-40 (VHH)
VHH: QVKLEESGGGLAQPGGSLRLSCAASGFSFSFKNYAMSWVRQAPGKGLEWVSTMSGGGGDIKYADSVKGRFTISRDNAKNTLYLQMNSLKPEDTAVYYCAKGWIATDQFTNTPRGQGTQVTVSS
[1]
  A450 nm: 1.09

B2: 3G-20 (VHH)
VHH: EVQLVESGGGLVQPGGSLTLSCAASGFSFSFENYAMSWVRQAPGKGLEWVSTMSGGGGDIKYADSVKGRFTISRDNAKNTLYLQMNNLKPEDSAVYYCAKGWITTNRLTNTPRGQGTQVTVSS
[2]
  A450 nm: 1.18

B3: 3G-36 (VHH)
VHH: QVQLVESGGGLVQPGGSLTLSCAASGFSFSFENYAMSWVRQAPGKGLEWVSTMSGGGGDIKYADSVKGRFTISRDNAKNTLYLQMNNLKPEDSAVYYCAKGWITTNQFTNTPRGQGTQVTVSS
[3]
  A450 nm: 0.934

B4: 3G-8 (VHH)
VHH: HVQLVESGGGLVQPGGSLTLSCAASGFSFSFENYAMSWVRQAPGKGLEWVSTMSGGGGDIKYADSVKGRFTISRDNAKNTLYLQMNNLKPEDSAVYYCAKGWITTNRFTNTPRGQGTQVTVSS
[4]
  A450 nm: 0.933

B5: 3G-22 (VHH)
VHH: QVQLVESGGGLVQPGGSLTLSCAASGFSFSFENYAMSWVRQAPGKGLEWVSTMSGGGGDIKYADSVKGRFTISRDNAKNTLYLQMNNLKPEDSAVYYCAKGWITTNRFTNIPRGQGTQVTVSS
[5]
  A450 nm: 1.14

B6: 3G-59 (VHH)
VHH: QVQLVESGGGLVQPGGSLTLSCAASGFSFSFENYAMSWVRQAPGKGLEWVSTMSGGGGDIKYADSVKGRFTISRDNAKNTLYLQMNNLKPEDSAVYYCAKGWITANRFTNTPRGQGTQVTVSS
[6]
  A450 nm: 1.16

B7: 3-G-19_M13R (VHH, not shown: small tags and cut ends)
VHH: QVKLEESGGGLVQPGGSLRLSCTASGFSFAFKDYAMSWVRQAPGKGLEWVSTMSGGGGDTKYADSVKGRFTISRDNNKNTVYLQMNSLKPEDTAVYYCAKGWITTNQFADAPRGQGTQVTVSS
[7]
  Kd: 1730 pM
  koff: 0.000368 s⁻¹
  kon: 213000 M⁻¹ s⁻¹
[8]
  Kd: 1710 pM
  koff: 0.000368 s⁻¹
  kon: 216000 M⁻¹ s⁻¹
[9]
  A450 nm: 1.07

B8: 3-G-44_M13R (VHH, not shown: small tags and cut ends)
VHH: QVQLVESGGGLVQPGGSLRLSCTASGFSFAFKNYAMSWVRQAPGKGLEWVSTMSGGGGDTKYADSVKGRFTISRDNAKNAVYLQMNSLKPEDTAVYYCAKGWITTDQFATAPRGQGTQVTVSS
[10]
  Kd: 50 pM
[11]
  Kd: 51 pM
  koff: 0.000281 s⁻¹
  kon: 5.47e+06 M⁻¹ s⁻¹
[12]
  Kd: 48 pM
  koff: 0.000299 s⁻¹
  kon: 6.2e+06 M⁻¹ s⁻¹
[13]
  A450 nm: 1.05

B9: 3G-35 (VHH)
VHH: DVQLVDSGGGLVQPGGSLRLSCSASGFSSAFKNYAMSWVRQAPGKGLEWVSTMSGGGGDTKYADSVKGRFTISRDNNKNTVYLQMNSLKPEDTAVYYCAKGWITNNQFASAPRGQGTQVTVSS
[14]
  A450 nm: 1.13

B10: 3G-26 (VHH)
VHH: QVQLVESGGGLVQPGGSLRLSCTASGFSFAFKNYAMSWVRQAPGKGLEWVSTMSGGGGDTKYADSVKGRFTISRDNAKNTVYLQMNSLKPEDTAVYYCAEGWITTDQFASAPRGQGTQVTVSS
[15]
  A450 nm: 0.892

B11: 3G-24 (VHH)
VHH: QVKLEESGGGLAQPGGSLRLSCTASGFSFAFKNYAMSWVRQAPGKGLEWVSTMSGGGGDTKYADSVKGRFTISRDNAKNTVYLQMNSLKPEDTAVYYCAKGWITTDQFASAPRGHGTQVTVSS
[16]
  A450 nm: 1.09

B12: 3-G-77_M13R (VHH, not shown: small tags and cut ends)
VHH: QVQLVESGGGLVQPGGSLRLSCSASGFSFAFKNYAMSWVRQAPGKGLEWVSTMSGGGGDTKYADSVKGRFTISRDNNKNTVYLQMNSLKPEDTAVYYCAKGWITNNQFAFAPRGQGTQVTVSS
[17]
  A450 nm: 1.25
[11]
  Kd: 183 pM
  koff: 0.00093 s⁻¹
  kon: 5.07e+06 M⁻¹ s⁻¹
[18]
  Kd: 200 pM
[12]
  Kd: 180 pM
  koff: 0.00102 s⁻¹
  kon: 5.67e+06 M⁻¹ s⁻¹

B13: 3G-43 (VHH)
VHH: AVQLVESGGGLVQPGGSLRLSCSASGFSFAFKNYAMSWVRQAPGKGLEWVSTMSGGGGDTKYADSVKGRFTISRDNNKNTVYLQMNSLKPEDTAVYYCAEGWITNNQFASAPRGQGTQVTVSS
[19]
  A450 nm: 1.19

B14: 3G-10 (VHH)
VHH: QVQLVESGGGLVQPGGSLKLSCASSESIFAFKNYAMSWVRQAPGKGLEWVSTMSGGGGDTKYADSVKGRFTISRDNAKNTVYLQMNSLKPEDTAVYYCAKGWITTDQFASAPRGHGTQVTVSS
[20]
  A450 nm: 1.14

B15: 3G-12 (VHH)
VHH: DVQLVESGGGLVQPGGSLRLSCAASGFSFSFKNYAMTWVRQAPGKGLEWVSTMSGGGDETKYADSVKGRFTISRDNTKNTLYLQMNSLKPEDTAVYYCAKGWITTDRFTNTPRGQGTQVTVSS
[21]
  A450 nm: 1.01

B16: 3-G-41_M13R (VHH, not shown: small tags and cut ends)
VHH: QVQLVESGGGLVQPGGSLRLSCAASGFSFSFKNYAMSWVRQAPGKGLEWVSTMSGGGGDIKYADSVKGRFTISRDNAKNTLYLQMNSLKPEDTAVYYCAKGWITTDQFTNTPRGQGTQVTVSS
[22]
  A450 nm: 0.805
[11]
  Kd: 96 pM
  koff: 0.000274 s⁻¹
  kon: 2.85e+06 M⁻¹ s⁻¹
[12]
  Kd: 92 pM
  koff: 0.000279 s⁻¹
  kon: 3.05e+06 M⁻¹ s⁻¹

B17: 3G-4 (VHH)
VHH: QVKLEESGGGLVQPGGSLRLSCAASGFSFSFKNYAMSWVRQAPGKGLEWVSTMSGGGDETKYADSVKGRFTISRDNTKNTLYLQMNSLKPEDTAVYYCAKGWITTDRFTNTPRGQGTQVTVSS
[23]
  A450 nm: 1.09

B18: 3G-64 (VHH)
VHH: QVQLVESGGGLVQPGGSLRLSCAASGFSFSFKNYAMSWVRQAPGKGLEWVSTMSGSGGDTKYADSVKGRFTISRDNAKNTLYLQMNSLKPEDTAVYYCAKGWITTDRFTDAPRGQGTQVTVSS
[24]
  A450 nm: 0.985

B19: 3G-87 (VHH)
VHH: DVQLVESGGGLVQPGGSLRLSCAASGFSFSFENYAMSWVRQAPGKGLEWVSTMSGGGGDTKYADSVKGRFTISRDNAKNMLYLQMNSLKPEDTAVYYCAKGWITTDRFTNTLRGQGTQVTVSS
[25]
  A450 nm: 1.13

B20: 3G-6 (VHH)
VHH: QVQLVESGGGLVQPGGSLRLSCTASGFSFSFKNYAMSWVRQAPGKGLEWVSTMSGGGGDTKYADSVKGRFTISRDNAKNTLYLQMNSLKPEDTAVYYCAKGWITTDRFTDTPRGQGTQVTVSS
[26]
  A450 nm: 0.951

Source: patent US20230279077A1
